Where no end group is shown, it is not given here.
Assays:
[1] = target: T1, PTEN peptide 33-47 amide (human and mouse (same sequence), UniProt P60484); test: filter binding; Filter binding: 50 mM Tris (pH not given), 1 h, 40 µl, protein 0.5 mg/ml (Fig. 2E: GST-PTEN 25 µM), PBS washes; co-precipitation 1 h at room temperature, 1 µM aptamer; pull-down from homogenate with 250 nM aptamer, salmon sperm DNA, RIPA (1:2)/PBS washes; blots in PBS-BSA 2%; conditions: tags: C-terminal amide; label: 5'-biotin or 32P (assay dependent); hairpin; 13 bp stem from the constant regions
T1 chain: IAMGFPAERLEGVYR-NH2

[2] = target: T2, GST-PTEN (amino-terminal phosphatase domain) (Homo sapiens, UniProt P60484 1-200); test: filter binding, Scatchard; called affinity constant; Filter binding: 50 mM Tris (pH not given), 1 h, 40 µl, protein 0.5 mg/ml (Fig. 2E: GST-PTEN 25 µM), PBS washes; co-precipitation 1 h at room temperature, 1 µM aptamer; pull-down from homogenate with 250 nM aptamer, salmon sperm DNA, RIPA (1:2)/PBS washes; blots in PBS-BSA 2%; conditions: protein: recombinant; tags: GST (N-terminal, pGEX2T); label: 5'-biotin or 32P (assay dependent); hairpin; 13 bp stem from the constant regions
T2 sequence (P60484 1-200): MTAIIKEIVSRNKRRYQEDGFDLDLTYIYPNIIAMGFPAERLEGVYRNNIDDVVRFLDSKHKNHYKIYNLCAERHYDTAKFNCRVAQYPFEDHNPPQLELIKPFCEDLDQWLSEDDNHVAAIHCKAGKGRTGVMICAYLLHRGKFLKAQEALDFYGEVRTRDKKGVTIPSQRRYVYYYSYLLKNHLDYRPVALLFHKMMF

[3] = target: T2, GST-PTEN (amino-terminal phosphatase …); test: filter binding, Scatchard; data not shown; Filter binding: 50 mM Tris (pH not given), 1 h, 40 µl, protein 0.5 mg/ml (Fig. 2E: GST-PTEN 25 µM), PBS washes; co-precipitation 1 h at room temperature, 1 µM aptamer; pull-down from homogenate with 250 nM aptamer, salmon sperm DNA, RIPA (1:2)/PBS washes; blots in PBS-BSA 2%; conditions: protein: recombinant; tags: GST (N-terminal, pGEX2T); label: 5'-biotin or 32P (assay dependent); hairpin; 13 bp stem from the constant regions
[4] = target: T1, PTEN peptide 33-47 amide; test: co-precipitation on antibody-Sepharose, real-time PCR; peptide bound to anti-PTEN antiserum; 1.8e11 molecules bound; Filter binding: 50 mM Tris (pH not given), 1 h, 40 µl, protein 0.5 mg/ml (Fig. 2E: GST-PTEN 25 µM), PBS washes; co-precipitation 1 h at room temperature, 1 µM aptamer; pull-down from homogenate with 250 nM aptamer, salmon sperm DNA, RIPA (1:2)/PBS washes; blots in PBS-BSA 2%; conditions: tags: C-terminal amide; label: 5'-biotin or 32P (assay dependent); hairpin; 13 bp stem from the constant regions

B1: PTENz7 (structured_DNA)
DNA: CGGAATTCCGAGCGTGGGCGTGGTCATACCGCGCCTATCGAACTCGCCACTCGCGTGCAGCTCTGTGTAGGTACGCCCACGCTCGAG
- binding result [1]: binds
- Kd [2]: 75 nM

B2: PTENz14 (structured_DNA)
DNA: CGGAATTCCGAGCGTGGGCGTGAGCCCTAAACACAAGTCCGCAGGGGTGTGGTAATATTCGCAGTTGTGTGTACGCCCACGCTCGAG
- Kd [3]: 54 nM
- binding signal [4]: ~20 fold over background
